According to the RNAGym collection of RNA variant scans (doi:10.1073/pnas.2313332121):

B1: TPR t1 (parent)
chain: GACCAAUCUGCCCUCAGAGCUCGAGAACAUCUUCGGAUGCAGAGGAGGCAGGCUUCGGUGGCGCGAUAGCGCCAACGUCCUCAACCUCCAAUGCAUCCCACCACAUGAUGAUGCCUGAAGAGCCUUGGUUUUUUG

Variants of: B1
Assay: polymerase ribozyme fitness, log enrichment relative to wild type (log ratio); higher = more active; in vitro selection for triplet polymerase activity
In short: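 Mutant libraries for each subunit of a heterodimeric triplet polymerase ribozyme were made by PCR and then transcribed. Each library underwent one round of in vitro selection in triplicate: annealing with a biotinylated primer, the partner subunit and triplets, frozen incubation at −7 °C, gel excision of extended constructs, streptavidin-bead capture and RT-PCR. Input and output libraries were Illumina-sequenced, and only genotypes with ≥10 input reads and ≥1 read per output were kept. Fitness is the logarithm, base 2, of genotype enrichment over wild-type enrichment, computed from inverse-variance-weighted replicate averages.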

| Variant | polymerase ribozyme fitness (log ratio) |
| --- | --- |
| GACCAAUCUGCCCUCCGAGCUCGAGAACAUCUUCGGAUGCAGAGGAGGCAGGCUGCGGUGGCGCGAUAGCGCCAACGUCCUCAACCUCCAAUGCAUCCCACCACAUGAUGAUGCCUGAAGAGGCUUGGUUUUUUG [A16C U55G C123G] | -0.307 |
| GACCAAUCUGCCCUCAGAGCUCGAGAACAUCUUCGGAUGCAGAGGUGGCAGGCUUCGGUGGCGCGAUAGCGCGAACAUCCUCAACCUCCAAUGCAUCCCACCACAUGAUGAUGCCUGAAGAGCCUUCGUUUUUUG [A46U C73G G77A G127C] | -3.61 |
| GACCAAUCUGCCCUCAGAGCUCGAGAACAUCUUCGGAUGCAGAGGAGGCAGGCUUAGGUGGCGCGAUAGCUCCAACGUCCUCAAUCUCCAAUGCAUCCCACAACAUGAUGAUGCCUGAAGAGCUUUGGUUUUUUG [C56A G71U C85U C102A C124U] | -4.27 |
| GACCAAUCUGCCCUCAGAGCUCGAGAACAUCUUCGGAUGCAGAGGAGGCAGGCUUGGGUGACGCGAUAGCGCCAACGGCCUCAACCUUCAAUGCAUCCCACCACAUGAUGAAGCCUGAAGAGCCUUGGUUUUUUG [C56G G61A U78G C88U U112A] | -0.105 |
| GACCAAUCUGCCCUCAGAGCUCGAGAACAUCUUCGGAUGCAGCCGAGGCAGGCUUCGGUGGCGCGAUAGCGCCAACGUCCUCAACCUCCAAUGCAUCCCACCACAUGAUGAUGCCUGUAGAGCCUUGGUUUUGUG [A43C G44C A118U U133G] | -1.11 |
| GACCAAUCUGCCCUCAGAGCUCGAGAACAUCUUCGGAUGCAGAGGAGGCAGGCUUCGGUGGCGCGAUAGCACCAACGUCCACAUCCUCCAAUGCAUCCCACCACAUGAUGAUGCCUGAAGAGCCUUGGUUUUUUG [G71A U81A A84U] | -2.93 |
| GACCAAUCUUCCCUCAGAGCUCGAGAACAUCUUCGGAUGCAGAGGAGGCAGGCUUCGGUGGCGCGAUAGCGCCAACGCCCUCAACUUCCAAUGCAUCCCACCACAUGAUAAUGCCUGAAGAGCCUUGGUUUUUUG [G10U U78C C86U G110A] | -1.98 |
| GACCAAUCUGCCCUCAGAGCUCGAGAACAUCUUCGGAUGCUGAGGAGGCAGGCUUCGGUGGCGCGAUAGCGCCAACGACCUCAACCUCCAAUGCAUCCCACCACAUGAUGACGCCUGAAGAGCCUUGGUUUUUUG [A41U U78A U112C] | 0.679 |
| GACCAAUCUGCCCUCAGAGCUCGAGAACAUCUUCGGAUGCAGAGGAGGCAGGCUUCGGUCGCGCGAUAGCGCCAACGUCCUCAACCUCCAAUGCAUCCCACCACAUGAUGAUGCCUGAAGAGCCUUUGUUUUUUG [G60C G127U] | -0.837 |
| GACCAAUCUGCCCUCUGAGCUCGAGAAUAUCUUCGGAUGCAGAGGAGGCAGGCUUCGGUGGCGCGAUAGCGCCAACGUCCUCAACCUCCAAUGCAUCCCACCACAUGAUGAUGCCUGAAUAGCCUUGGUUUUUUG [A16U C28U G120U] | -3.52 |
| GACCAAUCUGCCCUCAGAGCUCGAGAACAUCUUCGGAUGCAGAAGAGGCAGGCUUCGGUGGCGCGAUGGGGACAACGUCCUCAACCUCCAAUGCAUCCCACCACAUGAUAAUGCCUGAAGAACAUUGGUUUUUUG [G44A A68G C70G C72A G110A G122A C124A] | -7.69 |
| GACCAAUCUGCCCUCAGAGCUCGAGAACAUCUUCGGAUGCAGAGGAGGCGGGCUGCGGUGGCGCGAUAGCGCCAACGUCCUCAACCUCCAAUGCAUCCCACCACAUGAUCAUGCCUGAAGAGCCUUGGUUUUUUG [A50G U55G G110C] | -4.52 |
| GACCAAUCGGCCCUCAGAGCUCGAGAACAUAUUCGGAUGCAGAGGCGGCAGGCUUCGGUGGCGCGAUAGCACCAACGUCCUCAACCUCCAAUGCAUCCCACCACAUGAUAAUGCCUGAAGAGCCUUGGUUUUUUG [U9G C31A A46C G71A G110A] | -6.51 |
| GACCAAUCUGCCCUCAGAGCUCGAGAACAUCUUCGGAUGCAGAGGAGGCAGGCUUCGGUGGUGCGAUAGCGCCAACGUUCUCAACCUCCAAUGCAUCCCACCACAUGAUGAUGCCUGAAGAGCCUUGGUUUUUUG [C62U C79U] | -0.282 |
| GACCAAUCUGCCCUCAGAGCUCGAGAACAUCUUCGGAUGCAGAGGAGGCAGGCUUCGGUGGCGCGAUAGCGCCAACGUACUCAACCUCCAAUGCAUCCCACCACAUGAUGAUGGCUGAAGAGCCUUGGUUUUUUG [C79A C114G] | -4.53 |
| GAACAAUCUGCCCUCAGAGCUCGAGAACAUCUUCGGAUGCAGAGGAGGCAGGCUUCUGUGGCGCGAUAGCGCCACCGUCCUCAAGCUCCAAUGCAUCCCACCACAUGAUGAAGCCUGAAGAGUCUUGGUUUUUUG [C3A G57U A75C C85G U112A C123U] | -1.77 |
| GACCAAUCUGUCCUCAGAGCUCGAGUACAUCUUCGGAUGCAGAGGAGGCAGGCGUCGGUGGCGCGAUAGCGCCAACGUCCUCAACCUCCAAUGCAUCCCACCACAUGAUGAUGCCUGAAGAGCCUUGGUUUUUUG [C11U A26U U54G] | -2.81 |
| GACCAAUCUGCCCUCAGAGCUCGAGAACAUCUUCGGAUUCAGAGGAGGCAGGCUUCGGUGGCGCGAUAGCGCCAACGUCCUCAACCUUCAAUGCAUCCCACCACAUGAUGAUGCCUGAAGAGCCUUGGUUUUUUG [G39U C88U] | -0.766 |
| GACCAAUCUGCCCUCAGAGCUCGAGAACAUCUUCGGAUGCAGAGGAGGCAGGCUUCGGUGGUGCGAUAGCGCCAACGUCCUCAACCUCCAAUGCAUCCUAUCACAUGAUGAUGCCUGAAGAGCCUUGGUUUUUUG [C62U C99U C101U] | -3.02 |
| GACCAAUCUGCCCUCAGAGCUGGAGAACAUCUUCGGAUGCAGAGGAGGCAGGCUUCGGUGGCGCGAUAACGCCAACGUCCUCAACCUCCAAUGCAUCCCACCACAUGAUGAUGCCUGAAGAGCAUUGGUUUUUUG [C22G G69A C124A] | -3.93 |
| GACCAAUCUGCCCUCAGAGCUCGAGAACAUCUUCGGAUGCAGAGGAGGCCGGCUUCGGUGGCGCGAUAGCGUCAACGUCCGCAAACUCCAAUGCAUCCCACCACAUGAUGAUGCCUGAAGAGCCUUGGUUUUUUG [A50C C72U U81G C85A] | -1.34 |
